From US20170342167A1 (Hoffmann-La Roche, published 2017)
Substitutions are numbered along the chain they refer to. Names and notes keep the numbering of the source.

B1: IgG1 Fc-region with L234A/L235A/P329G and H310A/H433A/Y436A in both Fc-region polypeptides (other)
chain: DKTHTCPPCPAPEAAGGPSVFLFPPKPKDTLMISRTPEVTCVVVDVSHEDPEVKFNWYVDGVEVHNAKTKPREEQYNSTYRVVSVLTVLAQDWLNGKEYKCKVSNKALGAPIEKTISKAKGQPREPQVYTLPPSRDELTKNQVSLTCLVKGFYPSDIAVEWESNGQPENNYKTTPPVLDSDGSFFLYSKLTVDKSRWQQGNVFSCSVMHEALANHATQKSLSLSPGK
notes: As m2; Positions are EU numbers, not positions on the entry; also called HHY-AAA mutation
B2: IgG1 Fc-region with L234A/L235A/P329G and I253A/H310A in both Fc-region polypeptides (other)
chain: B1 chain with I33A, A213H, A216Y
notes: As m2; Positions are EU numbers, not positions on the entry
B3: IgG1 Fc-region with L234A/L235A/P329G and H310A/H435A in both Fc-region polypeptides (other)
chain: B1 chain with A213H, H215A, A216Y
notes: as for B2
B4: IgG1 Fc-region with L234A/L235A/P329G and I253A/H310A/H435A in both Fc-region polypeptides (other)
chain: B1 chain with I33A, A213H, H215A, A216Y
notes: As m2; Positions are EU numbers, not positions on the entry; also called IHH-AAA mutation
B5: IgG1 Fc-region with L234A/L235A/P329G and I253A/H435A in both Fc-region polypeptides (other)
chain: B1 chain with I33A, A90H, A213H, H215A, A216Y
notes: as for B2
B6: IgG1 Fc-region with L234A/L235A/P329G and H310A/Y436A in both Fc-region polypeptides (other)
chain: B1 chain with A213H
notes: as for B2

Molecular target: T1, human neonatal Fc-receptor (FcRn) (human, UniProt P55899 24-297; P61769 21-119, limits assumed, biotinylated (site not stated), coupled to streptavidin sepharose)
T1 construct: also called FcRn receptor
Assay: FcRn affinity chromatography

| Molecule | binding result |
| --- | --- |
| B1 | no binding (tested: retention time below 3 minutes) |
| B2 | no binding (tested: retention time below 3 minutes) |
| B3 | no binding (tested: retention time below 3 minutes) |
| B4 | no binding (tested: retention time below 3 minutes) |
| B5 | no binding (tested: retention time below 3 minutes) |
| B6 | no binding (tested: retention time below 3 minutes) |

Molecular target: T1, human neonatal Fc-receptor (FcRn)
Assay: FcRn affinity chromatography, anti-HER2 antibody

| retention time | Molecule |
| --- | --- |
| 46 min | anti-HER2 antibody symmetrically modified with T256H |
| 45.6 min | anti-HER2 antibody symmetrically modified with E258H |
| 46.3 min | anti-HER2 antibody, wild-type |
| 52 min | anti-HER2 antibody symmetrically modified with N434H |
| 41.4 min | anti-HER2 antibody symmetrically modified with R255D |
| 46.4 min | anti-HER2 antibody symmetrically modified with E430H |
| 46.3 min | anti-HER2 antibody symmetrically modified with Q311H |
| 45.5 min | anti-HER2 antibody symmetrically modified with L309H |
| 46.3 min | anti-HER2 antibody symmetrically modified with K317H |
| 46.2 min | anti-HER2 antibody symmetrically modified with K290H |
| 45.2 min | anti-HER2 antibody symmetrically modified with K288E |
